Test results reported in patent publication CN116440263A (SHANGHAI JUNSHI BIOSCIENCES CO LTD; JUNMENG BIOSCIENCES CO …, dated 2023).

Target: T1, His标签的重组人CTLA-4抗原蛋白 (human, UniProt P16410 36-161, limits assumed)
T1 construct: Made in-house (君盟自制); also called 重组人CTLA-4蛋白; 人CTLA-4蛋白; not shown: His tag
T1 sequence (looked up): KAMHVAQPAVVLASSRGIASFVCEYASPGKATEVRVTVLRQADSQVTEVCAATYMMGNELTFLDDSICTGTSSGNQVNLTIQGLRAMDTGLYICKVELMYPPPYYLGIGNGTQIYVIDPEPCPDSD
Assay: SPR (Biacore T200): antibody captured on goat anti-human Fc CM5 chip, His-tagged CTLA-4 0.75-24 nM as analyte, kinetic fit

Kd: 206 pM | koff: 0.000169 s⁻¹ | kon: 818000 M⁻¹ s⁻¹
B1: huJS007-47 (antibody, V domains shown)
VH: QVQLQESGPGLVKPSQTLSLTCTVSAYSITSGYYWNWIRQHPGKGLEWIGYIGYDGSNNYNPSLKSRVTISRDTSKNQFSLKLSSVTAADTAVYYCARDYYSGYFDSWGQGTTLTVSS
VL: DIQMTQSPSSLSASVGDRVTITCRASQNVGTYVAWYQQKPGKVPKPLIYSTSYRYSGVPSRFSGSGSGTDFTLTISSLQPEDVATYFCHQYDTYPLTFGAGTKLELKR
